Measurements from CN101896199A.

Assays:
[1] = biological target: HBV表面抗原 (hepatitis B virus surface antigen) (乙型肝炎病毒(HBV)); experiment: ELISA titre (method of Shin YW et al. 2007); formulation at 0 weeks, 25℃, 60% R.H.
[2] = biological target: HBV表面抗原 (hepatitis B virus surface antigen) (乙型肝炎病毒(HBV)); experiment: ELISA titre (method of Shin YW et al. 2007); formulation after 3 months
[3] = biological target: HBV表面抗原 (hepatitis B virus surface antigen) (乙型肝炎病毒(HBV)); experiment: ELISA titre (method of Shin YW et al. 2007); formulation after 6 months, 25℃, 60% R.H.
[4] = biological target: HBV表面抗原 (hepatitis B virus surface antigen) (乙型肝炎病毒(HBV)); experiment: ELISA titre (method of Shin YW et al. 2007); formulation after 3 months, 25℃, 60% R.H.

Measured: 滴度(IU/mg)

Hepabig基因 (从细胞系HBAb-49, 登录号KCLRF-BP-00054, 产生的针对HBV表面抗原的人抗体) (antibody)
> 2000 IU/mg: all assays above
